Test results as given in patent publication US20140044674A1 (Hoffmann-La Roche, published 2014).

B1: 4B9 Fab-IL-10 (other)
heavy: EVQLLESGGGLVQPGGSLRLSCAASGFTFSSYAMSWVRQAPGKGLEWVSAIIGSGASTYYADSVKGRFTISRDNSKNTLYLQMNSLRAEDTAVYYCAKGWFGGFNYWGQGTLVTVSSASTKGPSVFPLAPSSKSTSGGTAALGCLVKDYFPEPVTVSWNSGALTSGVHTFPAVLQSSGLYSLSSVVTVPSSSLGTQTYICNVNHKPSNTKVDKKVEPKSCDGGGGSGGGGSGGGGSSPGQGTQSENSCTHFPGNLPNMLRDLRDAFSRVKTFFQMKDQLDNLLLKESLLEDFKGYLGCQALSEMIQFYLEEVMPQAENQDPDIKAHVNSLGENLKTLRLRLRRCHRFLPCENKSKAVEQVKNAFNKLQEKGIYKAMSEFDIFINYIEAYMTMKIRN
light: EIVLTQSPGTLSLSPGERATLSCRASQSVTSSYLAWYQQKPGQAPRLLINVGSRRATGIPDRFSGSGSGTDFTLTISRLEPEDFAVYYCQQGIMLPPTFGQGTKVEIKRTVAAPSVFIFPPSDEQLKSGTASVVCLLNNFYPREAKVQWKVDNALQSGNSQESVTEQDSKDSTYSLSSTLTLSKADYEKHKVYACEVTHQGLSSPVTKSFNRGEC
notes: also called Fab-IL-10 (clone 4B9)
B2: 4B9 Fab-scIL-10-Fab (other)
heavy: EVQLLESGGGLVQPGGSLRLSCAASGFTFSSYAMSWVRQAPGKGLEWVSAIIGSGASTYYADSVKGRFTISRDNSKNTLYLQMNSLRAEDTAVYYCAKGWFGGFNYWGQGTLVTVSSASTKGPSVFPLAPSSKSTSGGTAALGCLVKDYFPEPVTVSWNSGALTSGVHTFPAVLQSSGLYSLSSVVTVPSSSLGTQTYICNVNHKPSNTKVDKKVEPKSCDGGGGSGGGGSGGGGSSPGQGTQSENSCTHFPGNLPNMLRDLRDAFSRVKTFFQMKDQLDNLLLKESLLEDFKGYLGCQALSEMIQFYLEEVMPQAENQDPDIKAHVNSLGENLKTLRLRLRRCHRFLPCENKSKAVEQVKNAFNKLQEKGIYKAMSEFDIFINYIEAYMTMKIRNGGGGSGGGGSGGGGSGGGGSSPGQGTQSENSCTHFPGNLPNMLRDLRDAFSRVKTFFQMKDQLDNLLLKESLLEDFKGYLGCQALSEMIQFYLEEVMPQAENQDPDIKAHVNSLGENLKTLRLRLRRCHRFLPCENKSKAVEQVKNAFNKLQEKGIYKAMSEFDIFINYIEAYMTMKIRNGGGGSGGGGSGGGGSEVQLLESGGGLVQPGGSLRLSCAASGFTFSSYAMSWVRQAPGKGLEWVSAIIGSGASTYYADSVKGRFTISRDNSKNTLYLQMNSLRAEDTAVYYCAKGWFGGFNYWGQGTLVTVSSASTKGPSVFPLAPSSKSTSGGTAALGCLVKDYFPEPVTVSWNSGALTSGVHTFPAVLQSSGLYSLSSVVTVPSSSLGTQTYICNVNHKPSNTKVDKKVEPKSCD
light: B1 light
notes: also called Fab-scIL-10-Fab (clone 4B9)

Columns and labels:
[1] = target: T1, human IL-10R1 ECD fused to a human Fc region, biotinylated (human, biotinylated (site not stated)); assay: SPR ProteOn XPR36, 25 C; biotinylated hu IL-10R1-Fc on neutravidin chip, construct as analyte
T1 construct: Captured on a neutravidin chip; also called hu IL-10R1; IL-10 receptor 1
Procedure: To measure the interaction between the antibody-IL-10 fusion constructs and the human IL-10R1, an NLC chip was used for immobilization of the biotinylated receptor (FIG. 9B). Between 400 and 1600 RU of human IL-10R1 (see SEQ ID NO: 87) were captured on the neutravidin-derivatized chip matrix along vertical channels at a concentration of 10 μg/ml and a flow rate of […] for varying contact times. Binding to biotinylated human IL10R1 was measured at six different analyte concentrations (50, 10, 2, 0.4, 0.08, 0 nM) by injections in horizontal orientation at 100 μl/min, recording the association rate for 180 s, the dissociation rate for 600 s. Running buffer (PBST) was injected along the sixth channel to provide an “in-line” blank for referencing. Association rates (kₒₙ) and dissociation rates (koff) were calculated using a simple 1:1 Langmuir binding model (ProteOn Manager software version 2.1) by simultaneously fitting the association and dissociation sensorgrams. The equilibrium dissociation constant (KD) was calculated as the ratio koff/kₒₙ. As human IL-10R1 could not be regenerated without a loss of activity, the two subsequent steps of ligand capture and analyte injection were performed channel per channel using a freshly immobilized sensorchip surface for every interaction.

[2] = target: T2, His-tagged human FAP ECD (human, UniProt Q12884 27-760); assay: SPR ProteOn XPR36, 25 C; His-tagged FAP captured by anti-penta-His IgG, construct as analyte
T2 construct: also called hu FAP
Procedure: (§1) To determine the affinities to FAP, the target protein was captured via its H6-tag by a covalently immobilized anti-H6 antibody (FIG. 9A). Briefly, anti-penta His IgG (Qiagen #34660, mouse monoclonal antibody) was immobilized at high levels (up to ˜5.000 RU) at 30 μ/min onto separate vertical channels of a GLM chip by simultaneously activating all channels for 5 min with a freshly prepared mixture of 1-ethyl-3-(3-dimethylaminopropyl)-carboiimide (EDC) and N-hydroxysuccinimide (sNHS), subsequently injecting 15 μg/ml anti-penta His IgG in 10 mM sodium acetate buffer pH 4.5 for 180 sec. Channels were blocked using a 5-min injection of ethanolamine. H6-tagged FAP from different species (see SEQ ID NOs 81, 83 and 85) was captured from a 5 μg/ml dilution in running buffer along the vertical channels for 60 s at 30 μl/min to achieve ligand densities between ˜250 and 600 RU. In a one-shot kinetic assay set-up (OSK), antibody-IL-10 fusion constructs were injected as analytes along the horizontal channels in a five-fold dilution series ranging from 50 to 0.08 nM at 100 μl/min. Association phase was recorded for 180 s, dissociation phase for 600 s. […] Running buffer (PBST) was injected along the sixth channel to provide an “in-line” blank for referencing. Association rates (kₒₙ) and dissociation rates (koff) were calculated using a simple 1:1 Langmuir binding model (ProteOn Manager software version 2.1) by simultaneously fitting the association and dissociation sensorgrams. The equilibrium dissociation constant (KD) was calculated as the ratio koff/kₒₙ.

[3] = target: T3, His-tagged cynomolgus FAP ECD (cynomolgus, UniProt Q12884 27-760 (human entry)); assay: as above
T3 construct: also called cyno FAP
Procedure: as §1

[4] = target: T4, His-tagged mouse FAP ECD (mouse, UniProt P97321 27-761); assay: as above
T4 construct: also called mu FAP; murine FAP
Procedure: as §1

Binder	Kd [1]	koff [1]	kon [1]	Kd [2]	koff [2]	kon [2]	Kd [3]	koff [3]	kon [3]	Kd [4]	koff [4]	kon [4]
B1	0.0212 nM	4.57e-05 s⁻¹	2.15e+06 M⁻¹ s⁻¹	1.05 pM	5.72e-06 s⁻¹	5.47e+06 M⁻¹ s⁻¹	0.0175 nM	7.27e-05 s⁻¹	4.16e+06 M⁻¹ s⁻¹	0.0234 nM	6.27e-05 s⁻¹	2.68e+06 M⁻¹ s⁻¹
B2	0.0553 nM	9.58e-05 s⁻¹	1.73e+06 M⁻¹ s⁻¹	6.56 pM	3.11e-05 s⁻¹	4.74e+06 M⁻¹ s⁻¹	0.00679 nM	3.35e-05 s⁻¹	4.93e+06 M⁻¹ s⁻¹	0.0303 nM	7.4e-05 s⁻¹	2.45e+06 M⁻¹ s⁻¹
